What was measured:
[1] = molecular target: T1, human ASCT2 (system ASC amino acid transporter 2), endogenous on human cancer cell lines KMS-11, OPM-2, WiDr … (human, UniProt Q15758 1-541); assay: flow cytometry on KMS-11 cells
T1 construct: also called SLC1A5
T1 sequence: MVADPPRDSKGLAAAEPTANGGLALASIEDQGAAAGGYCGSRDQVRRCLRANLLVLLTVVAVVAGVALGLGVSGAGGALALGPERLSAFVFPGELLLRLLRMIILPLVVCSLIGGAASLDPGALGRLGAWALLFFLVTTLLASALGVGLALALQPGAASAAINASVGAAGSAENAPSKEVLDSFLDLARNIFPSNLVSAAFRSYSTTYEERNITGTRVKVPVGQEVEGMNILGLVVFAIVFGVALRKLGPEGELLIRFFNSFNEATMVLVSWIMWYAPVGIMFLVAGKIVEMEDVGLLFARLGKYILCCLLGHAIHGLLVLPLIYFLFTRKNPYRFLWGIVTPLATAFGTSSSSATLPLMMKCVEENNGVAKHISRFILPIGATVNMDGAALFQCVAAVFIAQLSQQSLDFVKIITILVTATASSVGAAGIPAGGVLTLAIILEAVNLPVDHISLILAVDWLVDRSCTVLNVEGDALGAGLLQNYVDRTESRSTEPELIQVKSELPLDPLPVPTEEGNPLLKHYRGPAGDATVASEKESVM
Method: (§1) The human ASCT2-myc/His gene-introduced CHO cell obtained in Example 2, the vector-introduced CHO cell and the multiple myeloma cell line KMS-11 (HSRRB No. JCRB1179) were respectively cultured in a 5% CO₂ incubator for 3 to 4 days at 37° C. The human ASCT2-myc/His gene-introduced CHO cells and the vector-introduced CHO cells were peeled off with a 0.02% EDTA solution (manufactured by Nacalai Tesque) and washed with a mixed solution of PBS, 0.02% EDTA and 0.05% sodium azide. Additionally, in order to avoid the non-specific adsorption of antibodies, the cells were blocked for 30 minutes at ice temperature using 1% BSA-PBS for the human ASCT2-myc/His gene-introduced CHO cells and the vector-introduced CHO cells, and using 100 μg/mL of human IgG (manufactured by Sigma) for KMS-11. The cells were seeded into a 96-well U-bottom plate so as to give a density of 1×10⁵ to 5×10⁵ cells/100 μL/well and centrifuged at 1,500 rpm for 5 minutes (05PR-22, manufactured by Hitachi Koki) and then the supernatant was removed. The test substances as the primary antibody, i.e., the purified antibodies and rat IgG2a-UNLB (negative control, manufactured by Beckman Coulter) or KM511 {negative control, anti-G-CSF derivative antibody, [Agric. Biol. Chem., 53, 1095 (1989)], mouse IgG1} were diluted to give a final concentration of 10 μg/mL in a mixed solution (hereinafter, referred to as “Dilution Solution A”) of 1% BSA-PBS, 0.02% EDTA and 0.05% sodium azide and the resulting solution was added at the volume of 100 μL/well, followed by reaction for 60 minutes at ice temperature. […] Washing with Dilution Solution A was carried out three times again, the cells were suspended in PBS and the fluorescence intensity was measured by a flow cytometer (Cytomics FC500 MPL, manufactured by Beckman Coulter).

[2] = molecular target: T2, human ASCT2-myc/His (fusion protein in which myc/His was added to the C-terminal of human ASCT2), expressed … (human, UniProt Q15758 1-541); assay: flow cytometry on human ASCT2-myc/His CHO cells
T2 construct: Also used as cell lysate in Western blotting and immunoprecipitation; also called ASCT2/CHO; human ASCT2-myc/His gene-introduced CHO cells
T2 sequence: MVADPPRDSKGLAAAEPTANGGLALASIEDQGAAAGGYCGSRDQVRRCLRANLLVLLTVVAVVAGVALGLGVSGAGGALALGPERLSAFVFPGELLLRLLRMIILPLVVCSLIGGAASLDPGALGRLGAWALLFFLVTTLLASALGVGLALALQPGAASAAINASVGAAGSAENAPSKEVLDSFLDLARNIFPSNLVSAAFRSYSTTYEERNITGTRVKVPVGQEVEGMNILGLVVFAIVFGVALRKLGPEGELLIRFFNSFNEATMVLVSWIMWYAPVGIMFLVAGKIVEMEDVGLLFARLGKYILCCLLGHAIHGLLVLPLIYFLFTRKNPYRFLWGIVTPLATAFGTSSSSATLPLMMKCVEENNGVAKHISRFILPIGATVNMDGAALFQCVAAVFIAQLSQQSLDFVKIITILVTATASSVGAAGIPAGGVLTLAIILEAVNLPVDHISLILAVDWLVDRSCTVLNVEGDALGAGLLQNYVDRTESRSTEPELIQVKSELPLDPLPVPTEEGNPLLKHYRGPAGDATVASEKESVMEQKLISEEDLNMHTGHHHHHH
Method: as §1

[3] = molecular target: T1, human ASCT2 (system ASC amino acid …); assay: flow cytometry on OPM-2 cells, 0.01 to 10 ug/mL
Method: (§2) Each of the human ASCT2-myc/His gene-introduced CHO cell obtained in Example 2, and the multiple myeloma cell line OPM-2 (DSMZ Accession No. ACC50) was cultured in a 5% CO₂ incubator for 3 to 4 days at 37° C. The human ASCT2-myc/His gene-introduced CHO cells were peeled off with a 0.02% EDTA solution (manufactured by Nacalai Tesque), and in order to avoid the non-specific adsorption of antibodies, the cells were blocked for 30 minutes at ice temperature using 1% BSA-PBS. The cells were seeded into a 96-well U-bottom plate so as to give a density of 1×10⁵ to 5×10⁵ cells/100 μL/well. The plates were centrifugation at 1,500 rpm for 5 minutes (05PR-22, manufactured by Hitachi Koki), and then the supernatant was removed. As the primary antibody, the purified antibody which was a test substance was diluted to give a final concentration of 0.01 μg/mL to 10 μg/mL in 1% BSA-PBS, and dispensed to the plate at 100 μL/well, followed by reaction at ice temperature for 60 minutes. After washing the cells with 1% BSA-PBS, FITC-labeled anti-human immunoglobulin G (H+L) (manufactured by Jackson Laboratories) diluted with 1% BSA-PBS was added as the secondary antibody, followed by reaction at ice temperature for 30 minutes under shading. The cells were washed with 1% BSA-PBS and then suspended in PBS. The fluorescence intensity of the cells was measured by a flow cytometer (Cytomics FC500 MPL, manufactured by Beckman Coulter).

[4] = molecular target: T2, human ASCT2-myc/His (fusion protein in …); assay: flow cytometry on human ASCT2-myc/His CHO cells, 0.01 to 10 ug/mL
Method: as §2

[5] = molecular target: T3, mouse ASCT2-myc/His, expressed on CHO cells (mouse, UniProt P51912 1-553); assay: flow cytometry on mouse ASCT2/CHO cells
T3 construct: also called mouse ASCT2/CHO
T3 sequence: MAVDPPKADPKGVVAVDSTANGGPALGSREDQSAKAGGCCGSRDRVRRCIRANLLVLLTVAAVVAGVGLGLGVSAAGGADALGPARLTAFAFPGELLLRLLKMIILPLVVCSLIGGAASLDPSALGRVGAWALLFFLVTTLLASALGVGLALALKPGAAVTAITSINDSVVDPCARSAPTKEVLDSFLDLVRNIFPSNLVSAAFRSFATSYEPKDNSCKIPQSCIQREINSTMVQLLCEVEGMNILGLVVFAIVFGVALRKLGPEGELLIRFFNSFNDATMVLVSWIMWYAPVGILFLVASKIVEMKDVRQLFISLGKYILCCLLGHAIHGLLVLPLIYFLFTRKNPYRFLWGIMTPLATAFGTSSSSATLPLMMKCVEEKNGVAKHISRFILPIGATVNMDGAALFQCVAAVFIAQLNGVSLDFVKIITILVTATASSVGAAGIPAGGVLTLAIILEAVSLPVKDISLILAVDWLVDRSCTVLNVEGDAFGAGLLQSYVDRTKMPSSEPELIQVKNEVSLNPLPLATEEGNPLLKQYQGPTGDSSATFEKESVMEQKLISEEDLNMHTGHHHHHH

| Binder | binding result [1] | binding result [2] | binding result [3] | binding result [4] | binding result [5] |
| --- | --- | --- | --- | --- | --- |
| anti-ASCT2 monoclonal antibody KM4008 (hybridoma KM4008, FERM BP-10962) (antibody, V domains shown, Mouse monoclonal antibody) VH: QIQLVQSGPELKKPGETVKISCKASGYTFTTFGMSWVKQVPGKGLKWMGWIHTYAGVPIYGDDFKGRFAFSLETSASTAYLQINNVKNEDTATYFCARRSDNYRYFFDYWGQGTTLTVSS VL: DIQMTQTTSSLSASLGDRVTISCRASQDIRNYLNWYQRKPHGTVKLLIYYTSRLHSGVPSRFSGSGSGTDYSLTISNLEQEDIATYFCQQGHTLPPTFGGGTKLEIKR | binds | binds | – | – | – |
| anti-ASCT2 human chimeric antibody cKM4008 (antibody, V domains shown, VH and VL of KM4008 were inserted into vector pKANTEX93, which carries human CH and CL; The SDS-PAGE pattern was consistent with the IgG class) VH: QIQLVQSGPELKKPGETVKISCKASGYTFTTFGMSWVKQVPGKGLKWMGWIHTYAGVPIYGDDFKGRFAFSLETSASTAYLQINNVKNEDTATYFCARRSDNYRYFFDYWGQGTTLTVSS VL: DIQMTQTTSSLSASLGDRVTISCRASQDIRNYLNWYQRKPHGTVKLLIYYTSRLHSGVPSRFSGSGSGTDYSLTISNLEQEDIATYFCQQGHTLPPTFGGGTKLEIKR | – | – | binds | binds | – |
| anti-ASCT2 monoclonal antibody KM4012 (hybridoma KM4012, FERM BP-10963) (antibody, V domains shown, Hybridoma antibody) VH: QIQLVQSGPELKKPGETVKISCKASGYTFTTYGMSWVKQTPGKGLKWMGWIHTYSGVPIYGDDSKGRFAFSLETSGSIAYLQINNVKNEDTATYFCARRSDGYRYFFDYWGQGTTLTVSS VL: DIQMTQITSSLSASLGDRVTISCRASQDIRNYLNWYQQKPDGTVKLLIYYTSRLHSGVPSRFSGSGSGTDYSLTISNLEQEDIATYFCQQGNTLPPTFGGGTKLEIKR | binds | binds | – | – | – |

Further lines, results first:

| binding result [1] | binding result [2] | binding result [3] | binding result [4] | binding result [5] | Binder |
| --- | --- | --- | --- | --- | --- |
| – | – | binds | binds | – | anti-ASCT2 human chimeric antibody cKM4012 (antibody, V domains shown, VH and VL of KM4012 were inserted into vector pKANTEX93, which carries human CH and CL; The SDS-PAGE pattern was consistent with the IgG class) VH: QIQLVQSGPELKKPGETVKISCKASGYTFTTYGMSWVKQTPGKGLKWMGWIHTYSGVPIYGDDSKGRFAFSLETSGSIAYLQINNVKNEDTATYFCARRSDGYRYFFDYWGQGTTLTVSS VL: DIQMTQITSSLSASLGDRVTISCRASQDIRNYLNWYQQKPDGTVKLLIYYTSRLHSGVPSRFSGSGSGTDYSLTISNLEQEDIATYFCQQGNTLPPTFGGGTKLEIKR |
| binds | binds | – | – | no binding | anti-ASCT2 monoclonal antibody KM4018 (antibody, V domains shown, Hybridoma antibody) VH: EVQLVESGGGLVQSGRSIRLSCAASGFSFSNYYMAWVRQAPSKGLEWVASITKGGGNTYYRDSVKGRFTFSRDNAKSTLYLQMDSLRSEDTATYYCARQVTIAAVSTSYFDSWGQGVMVTVSS VL: DIVLTQSPALAVSLGQRATISCKTNQKVDYYGNSYVYWYQQKPGQQPKLLIYLASNLASGIPARFSGRGSGTDFTLTIDPVEADDTATYYCQQSRNLPYTFGAGTKLELKR |
| – | – | binds | binds | – | anti-ASCT2 human chimeric antibody cKM4018 (antibody, V domains shown, VH and VL of KM4018 were inserted into vector pKANTEX93, which carries human CH and CL; The SDS-PAGE pattern was consistent with the IgG class) VH: EVQLVESGGGLVQSGRSIRLSCAASGFSFSNYYMAWVRQAPSKGLEWVASITKGGGNTYYRDSVKGRFTFSRDNAKSTLYLQMDSLRSEDTATYYCARQVTIAAVSTSYFDSWGQGVMVTVSS VL: DIVLTQSPALAVSLGQRATISCKTNQKVDYYGNSYVYWYQQKPGQQPKLLIYLASNLASGIPARFSGRGSGTDFTLTIDPVEADDTATYYCQQSRNLPYTFGAGTKLELKR |
